Data as given in the DeepSol protein solubility set.

test: soluble on expression in E. coli; label from the status in PepcDB or PDB records

Sequence	soluble on expression in E. coli
MSLSAQHAAHAQADTITALGAYLTTLAESHGQDEVAQAMCEIATQTLPRSCGELWQLSLDREGWYHGGGWQTGTVLPPQGYTLRATLPRGPTDELRLPLQAHGLTVGEVRAPYEGLESEQEQQLLQTLSTAAAISLSGHLLQRRVRHRNVRDPLTGLFNRRYLEDTLERELHRARRVNAGLVLIRLEVDTLDAFAAEHGSETADRLMQAMADAVHHAFRGSDVCCRAGDDGFGILLPDASLDNGAMRAEAVREELAELRIHQRGRPLGPVTVSAGVAAYPDHSSNRDLLLDAAESAVTRARDEGGDVLRIAELVSPPNPNQGHHHHHH	soluble
MGSDKIHHHHHHMEEHFLYVPYYNRTRRIRVLLPKDYYTDTWDSYAVLYMHDGQNIFYSKESYSGYSWKIIPTIKHHKEFPKIIIVGIDNSGVDRLDEYGPWRTDVGSSPEIKKCGGKGMEYGKWVVEIVKPFIDQHYRTKPQKEHTLLAGSSMGGIITAYMGSAYPQIFGHLGVFSLASWFSEKDFLHFIHHNPIDKNSKVFIQVGTKEGDDVDSLFISNMNQAYIDCTLHYYQALLRTGHPLDNIRLRMMANEIHHEKHWADHFVEFLHFSLL	not soluble
MKAPSYHVVRGDIATATEGVIINAANSKGQPGGGVCGALYKKFPESFDLQPIEVGKARLVKGAAKHIIHAVGPNFNKVSEVEGDKQLAEAYESIAKIVNDNNYKSVAIPLLSTGIFSGNKDRLTQSLNHLLTALDTTDADVAIYCRDKKWEMTLKEAVARREHHHHHH	soluble
MSIDRTSPLKPVSTVQTRETSDTPVQKTRQEKTSAATSASVTLSDAQAKLMQPGVSDINMERVEALKTAIRNGELKMDTGKIADSLIREAQSYLQSK	not soluble
MKRLEVSNQAKLPTQFGEFYIQCFREKGSNGSKDHLVVFTPNFSQNPLVRLHSECLTGDALGSQKCDCGGALQMALERISKEGGLVIYLRQEGRGIGLFNKVNAYALQDKGYDTIQANEMIGFKDDERDYSVAGEILEYYRIKKMRLLTNNPKKIAALEKYAEVTRESLIVCANEHNQGYLEVKKLKMGHLLLEHHHHHH	soluble
MPHFTKRPAQPQAALAEAAGLRWLAEASSAVAQVVSADAEQITTVGVETQLPTPDAAFKAGEELARIHLAGAPAFGCPPAGWAGLNYIGTQGQACLSTPTWGVFYSQQRVLPFARRARRRNHLTEHALWVVEAACDLISELPDDVPPARIHGDLWFGNLLFGTDGPVFIDPAAHGGHPETDLAMLDVFGAPYLDEIREGYLSINPLPDGWRERTPMHQLHPLAVHAASHGPSYGVELLHAAKATLKLLDLEHHHHHH	not soluble
MELSSPITIYWDLPATAADPSLLLAIAAGIIDCRPLMLNVTSTAPTSPGWLGEVLERFRGGPAAVTLTIPPQAHDDTVRALVAHGAVRELLLDVDHADLLDSGEWQDEPSAGVSYAVTHGNWRELPTLVHYCLDRGITRLVLPMQRLYGGEPPFFLTMNEQRELANALDAEGGAQRLALTIHDPFLWRAFNPGVPFPQGGCQAANTMIAIAPDGGVYPCPTLPVRLGTAGEMPLQELIASEAKKALRRRLLEHPRACGACGELAECRGGCRGRAYVMHQSLEGEDPSCWLEHHHHHH	not soluble
SLIRMIRKFKVKGLRSPSLLIDMILNDTEEGILVVETDGEEQIKDIEKLLKKYNLKYEVDGNVVKIYVGEIKADKTINVVGATCPGPIMMVSDMLSKMKNGEILEIICGKNSLTDLTEGLKGMGNEIIKVEDKGDGTYRILVKKGEKKEEKAAVTKIDELFIINTTGTGNAEKAYATFMMADVALKMNLKPTIFLMMDGASLALKGECDRVKHPAFPKLGDLVRDILSKGVKIYVCELSAEFRGINEKNLEEGFEIAGAPTFLNYLSKPNVRPVWL	soluble
MHHHHHHSSGVDLGTENLYFQSMGLSRVRAVFFDLDNTLIDTAGASRRGMLEVIKLLQSKYHYKEEAEIICDKVQVKLSKECFHPYNTCITDLRTSHWEEAIQETKGGAANRKLAEECYFLWKSTRLQHMTLAEDVKAMLTELRKEVRLLLLTNGDRQTQREKIEACACQSYFDAVVVGGEQREEKPAPSIFYYCCNLLGVQPGDCVMVGDTLETDIQGGLNAGLKATVWINKNGIVPLKSSPVPHYMVSSVLELPALLQSIDCKVSMST	soluble
RKNSQSETFKVGVLQYVSHNALDEIYRGIKAGLKEEGYSGKKIKIDFMNAEGDQSKVQTMSQTLVNHKNDVLVGIATPAAQGLASATKKTPIIMGAVTDPVGAKLVKDLKKPNGNVTGVSDKTPISDQVSLIKKLTPDVKTVGILYSSSEDNSKSQVEEFKKIAEKKGYKVLEYSVPSTNEIATTMNVMLDKTDAVWIPLDNTIASAFPTVVSAAKTAKKPIYPSVDTMVTEGGLASVVVDQYKLGVATGKMAVKVFEGKKVSQLPVDIFDKGTPVVNKKVAKELGIDIPSDILKKAKQQKNQ	not soluble
MADRGGFQSGFGGRGGGRGGARPAGDRPAGRGGRGGRGGRGGRGGRAGRGGEKETEWTPVTKLGRLVKEKKITTLEEIYLNSLPIKEFEIIDALCSNLKDEVLKISPVQKQTTAGQRTRFKAFVAIGDHAGHVGLGVKCSKEVATAIRGAIVAAKLAVVPVRRGYWGNKIGLPHTVPCKVTGKCASVMVRLIPAPRGTGIVSAPVPKKLLHMAGIEDCYTAAKGSTATLGNFAKATYAALQRTYSYLTPDLWKEEALEKSPYQRHHEYLARN	not soluble
MNVRDLSFKLNSIFDINKYEHIDKNLNGLQVGNINAKVNKVAFAVDASFSTLKEAKGNDFLITHHGIFWSKKERIVSNMYDKTKFLIENNLALYSVHLPMDAHSVYSHSKVFSDFLGLKNSFAFANYGGVNLGIIADSVFSFSEILEKIKKENKHILFSKKFKESVNKVAIVSGSGYSFFEEALCHDVDLFITGDTSHQIYSLAEEFGVNLIFAGHYFTETFGLIKLMEDFKIQEDLEVKFICKNTNLLEHHHHHH	not soluble
MGSDKIHHHHHHMNLLTDIFCQKPKRETAMTTETHYDTQAANSCYYQVQGSEVEIFNFAKTHDLPVLIKGPTGCGKTRFVEFMAESLGRELVTVSCHDDLTAADLLGRHLVSSEGTFWQDGPLTRAVRHGGICYLDEIIEARKDTTVVLHSLSDHRRELHLERTGEVIKAHKDFMLVVSYNPGYQNMMKGLKPSTRQRFVAMSFDYPSPEQEAEILVHEAGITTELAHTLVKLGADIRRLSDIDLKAAVSTRLLIYAAKMMSSGCHAQMACLHCIIEPLTDEKQTIEALTQLVNAHF	not soluble
MEIKDTYNIGELSPGMTATFEGEVISALPIKEFKRADGSIGKLKSFIVRDETGSIRVTLWDNLTDIDVGRGDYVRVRGYIREGYYGGLECTANYVEILKKGEKIESLEHHHHHH	not soluble
MGSDKIHHHHHHMVILVNPSILESSFIPDRLVARDGEIERIMETVIKPTKNGITTNLILYGDSGTGKTVTMRYLAREIRDPQVVYVNAIAYRYVKNVLIDFLSKFGIIVPERSSYASLFTRIEGLLRNQGKNVILVIDEAANILKGDYDGLYYLFRSKDSFDVNISTIFVVMEDPAILFDAKIRKSYGIFSEIKFRRYTKGEIYQIVMNRAVQSLTGEGYDEDVLDYIAEVSAEYGSARVGIDILAKAAHIAEYRRSPKISFDDVRAARSMISPFVTESKLASMDYEDLMVLLSICRCLSASRFTDVDCISRNLSVISEQYGKKDINLYDRIKRLENNGIISSSIEGQGRGEGVKKVISIYDIPVSVLTEKIENLLSA	not soluble
MGSDKIHHHHHHMTGSNKVIISCAVTGSIHTPTMTPYLPITSTEIANAATGAIDAGAAIVHLHARHPDDGRPDQTVGAFRPFIEHIKAHTDGIINLTTGGAPTMSVEERLQPALHLKPEIASLNMGSMNFGLFPMLNRYKEFKHEWERHYLEGTRDLVFRNTFKDIEYVLSSCTGNDTRFEFECYDTAHLYNLAHFLDRKLVTPPLFVQTVFGILGGIGSHADDVAHMKRTADRLFGSNYVWSVLGAGRAQMPVASIAAAQGGNVRVGIEDSIWNGPGQLAKANSDQVRRVRQILEGMGLAIATPDEARTLLHLKGRNNVAF	not soluble
MGSDKIHHHHHHMREKIKLELERIEKENDVKILFAVESGSRVWGFPSKDSDYDVRFVYMHPVEWYLSIHDKRDVIEYPISDDLDISGWDIKKALQLFAKSNPALLEWIRSPIFYSKNSNFPEQLQQMSEKNFDPKATIYHYLHMASKNYREFLQGENVKLKKYFYVLRPILACKWLEEKTTLPPVEFDRLITELSIERSVLDEIEQLLIKKKAGTELDVGLKIEVLNQFLEEQIHYYQQYVKGIEKGSGIDIESLNTLFRDMLFAVYEKEHK	not soluble
MTFQVILCYETVRQVAGLESELKANGFGQAQVLPNGTVPNRGSIVDLTNAISKLGVLRATAAGLAGTISRGGAVAIVPAHFGAGGKATEIMKKYNPIVDRPAAKPSAWDDAAPFSSLLRLPVITKSQPFKGHSGTPLIIEQEGAYRSNSGEPLVIKQTGGYRSMSGTPLLLDGGPYKSFSGTPLLIEQKDAYSSFSGTPLLVDSNTLFLTRA	not soluble
AHHHHHHGSKLKFWREVAIDIISDFETTIMPFFGNPDGGKLVKISPSGDETKLVDKLAEDLILSRITELGVNVVSEEVGVIDNESEYTVIVDPLDGSYNFIAGIPFFALSLAVFKKDKPIYAIIYEPMTERFFEGIPGEGAFLNGKRIKVRKTPDEKPSISFYSRGKGHEIVKHVKRTRTLGAIALELAYLAMGALDGVVDVRKYVRPTDIAAGTIIAKEAGALIKDSAGKDIDISFNATDRLDVIAVNSEELLKTILSLLE	soluble
MIRTVKPKNARAKRALVKREAKLVENVKQALFIPGQSCNKNLHDIMVDLSALKKPDMKRFNRKNDIHPFEDMSPLEFFSEKNDCSLMVLMTSSKKRKNNMTFIRTFGYKIYDMIELMVADNFKLLSDFKKLTFTVGLKPMFTFQGAAFDTHPVYKQIKSLFLDFFRGESTDLQDVAGLQHVISMTIQGDFQDGEPLPNVLFRVYKLKSYKSDQGGKRLPRIELVEIGPRLDFKIGRIHTPSPDMVTEAHKKPKQLEMKTKKNVELDIMGDKLGRIHMGKQDLGKLQTRKMKGLKSKFDQGTEEGDGEVDEDYEDEASYSDDGQEYEEEFVSATDIEPSAKRQKK	not soluble
MGHHHHHHSHMEEKFEDRSPAAECLSEKETEELMAWMRNVLGSRVTNVKVTLRLDTHPAMVTVLEMGAARHFLRMQQLAKTQEERAQLLQPTLEINPRHALIKKLNQLRASEPGLAQLLVDQIYENAMIAAGLVDDPRAMVGRLNELLVKALERH	soluble
MVILLPMVTFTMAYLIVDVPKPGDIRTNQVSTILASDGSEIAKIVPPEGNRVDVNLSQVPMHVRQAVIAAEDRNFYSNPGFSFTGFARAVKNNLFGGDLQGGSTITQQYVKNALVGSAQHGWSGLMRKAKELVIATKMSGEWSKDDVLQAYLNIIYFGRGAYGISAASKAYFDKPVEQLTVAEGALLAALIRRPSTLDPAVDPEGAHARWNWVLDGMVETKALSPNDRAAQVFPETVPPDLARAENQTKGPNGLIERQVTRELLELFNIDEQTLNTQGLVVTTTIDPQAQRAAEKAVAKYLDGQDPDMRAAVVSIDPHNGAVRAYYGGDNANGFDFAQAGLQTGSSFKVFALVAALEQGIGLGYQVDSSPLTVDGIKITNVEGEGCGTCNIAEALKMSLNTSYYRLMLKLNGGPQAVADAAHQAGIASSFPGVAHTLSEDGKGGPPNNGIVLGQYQTRVIDMASAYATLAASGIYHPPHFVQKVVSANGQVLFDASTADNTGDQRIPKAVADNVTAAMEPIAGYSRGHNLAGGRDSAAKTGTTQFGDTTANKDAWMVGYTPSLSTAVWVGTVKGDEPLVTASGAAIYGSGLPSDIWKATMDGALKGTSNETFPKPTEVGGYAGVPPPPPPPEVPPSETVIQPTVEIAPGITIPIGPPTTITLAPPPPAPPAATPTPPP	soluble
